Test [1] deals with T1, PNMA family member 5, transcript variant 2 (human, UniProt Q96PV4 1-448).
T1 construct: on protein array; also called PNMA5
Put plainly: protein array.

Test [2] has as its target T2, phospholipase C delta 1, transcript variant 2 (human, UniProt P51178 1-756).
T2 construct: on protein array; also called PLCD1
T2 sequence: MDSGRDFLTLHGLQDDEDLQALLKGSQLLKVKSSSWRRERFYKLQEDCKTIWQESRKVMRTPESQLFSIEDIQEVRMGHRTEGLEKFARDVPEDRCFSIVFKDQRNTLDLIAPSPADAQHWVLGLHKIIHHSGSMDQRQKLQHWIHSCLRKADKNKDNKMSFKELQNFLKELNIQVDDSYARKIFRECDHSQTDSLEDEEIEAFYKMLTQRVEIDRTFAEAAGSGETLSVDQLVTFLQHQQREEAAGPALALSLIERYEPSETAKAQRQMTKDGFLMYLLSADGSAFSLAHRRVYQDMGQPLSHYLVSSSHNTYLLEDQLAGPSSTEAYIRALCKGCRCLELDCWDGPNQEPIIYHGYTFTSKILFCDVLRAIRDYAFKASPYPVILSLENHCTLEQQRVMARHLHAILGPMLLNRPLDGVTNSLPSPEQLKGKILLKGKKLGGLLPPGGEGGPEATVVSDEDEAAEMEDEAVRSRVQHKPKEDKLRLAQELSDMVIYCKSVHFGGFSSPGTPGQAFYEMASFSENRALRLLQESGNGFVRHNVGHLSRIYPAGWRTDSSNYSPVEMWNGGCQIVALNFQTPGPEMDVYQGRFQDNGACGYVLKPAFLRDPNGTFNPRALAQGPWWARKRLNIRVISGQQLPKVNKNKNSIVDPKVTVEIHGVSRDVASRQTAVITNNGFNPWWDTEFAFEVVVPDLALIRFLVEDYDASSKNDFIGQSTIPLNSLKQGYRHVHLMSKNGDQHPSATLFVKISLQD
Put plainly: protein array.

Test [3] deals with T3, zinc finger protein 326, transcript variant 1 (human, UniProt Q5BKZ1 1-582).
T3 construct: on protein array; also called ZNF326
T3 sequence: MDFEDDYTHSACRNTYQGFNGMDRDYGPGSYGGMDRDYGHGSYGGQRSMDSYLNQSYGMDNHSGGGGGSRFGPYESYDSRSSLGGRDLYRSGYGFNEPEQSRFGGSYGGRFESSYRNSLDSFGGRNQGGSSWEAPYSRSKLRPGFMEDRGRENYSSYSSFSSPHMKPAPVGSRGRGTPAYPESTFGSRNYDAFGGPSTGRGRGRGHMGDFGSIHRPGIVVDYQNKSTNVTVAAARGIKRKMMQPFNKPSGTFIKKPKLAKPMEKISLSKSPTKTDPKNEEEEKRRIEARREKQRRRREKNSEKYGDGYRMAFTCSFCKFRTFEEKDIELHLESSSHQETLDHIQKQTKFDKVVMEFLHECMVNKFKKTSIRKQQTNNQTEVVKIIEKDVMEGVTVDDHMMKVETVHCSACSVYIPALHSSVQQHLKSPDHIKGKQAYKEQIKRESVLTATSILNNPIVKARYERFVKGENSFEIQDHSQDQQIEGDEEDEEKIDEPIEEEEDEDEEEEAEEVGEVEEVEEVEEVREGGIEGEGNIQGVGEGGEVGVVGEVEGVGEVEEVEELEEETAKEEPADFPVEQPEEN
Put plainly: protein array.

The target of a further test is T4, Dexd-box helicase 52 (human, UniProt Q9Y2R4 1-599).
T4 construct: also called DDX52
T4 sequence: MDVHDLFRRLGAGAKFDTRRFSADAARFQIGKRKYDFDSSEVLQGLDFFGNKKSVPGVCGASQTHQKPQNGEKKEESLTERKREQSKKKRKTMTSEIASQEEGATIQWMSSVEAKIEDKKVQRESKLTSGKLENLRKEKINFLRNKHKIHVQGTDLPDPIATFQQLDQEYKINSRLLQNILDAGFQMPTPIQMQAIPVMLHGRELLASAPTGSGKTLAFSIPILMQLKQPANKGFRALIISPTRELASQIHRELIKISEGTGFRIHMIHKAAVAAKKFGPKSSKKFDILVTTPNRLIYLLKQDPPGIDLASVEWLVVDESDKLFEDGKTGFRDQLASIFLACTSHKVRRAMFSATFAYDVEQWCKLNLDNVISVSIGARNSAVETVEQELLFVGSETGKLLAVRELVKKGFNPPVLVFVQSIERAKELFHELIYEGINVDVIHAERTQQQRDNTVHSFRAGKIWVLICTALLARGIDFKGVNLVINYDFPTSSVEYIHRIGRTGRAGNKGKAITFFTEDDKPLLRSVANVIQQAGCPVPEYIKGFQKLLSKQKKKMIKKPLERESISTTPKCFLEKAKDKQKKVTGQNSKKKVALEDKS

For test [4], the target named is T5, G protein-coupled receptor 4 (human, UniProt P46093 1-362).
T5 construct: also called GPR4
T5 sequence (P46093 whole entry): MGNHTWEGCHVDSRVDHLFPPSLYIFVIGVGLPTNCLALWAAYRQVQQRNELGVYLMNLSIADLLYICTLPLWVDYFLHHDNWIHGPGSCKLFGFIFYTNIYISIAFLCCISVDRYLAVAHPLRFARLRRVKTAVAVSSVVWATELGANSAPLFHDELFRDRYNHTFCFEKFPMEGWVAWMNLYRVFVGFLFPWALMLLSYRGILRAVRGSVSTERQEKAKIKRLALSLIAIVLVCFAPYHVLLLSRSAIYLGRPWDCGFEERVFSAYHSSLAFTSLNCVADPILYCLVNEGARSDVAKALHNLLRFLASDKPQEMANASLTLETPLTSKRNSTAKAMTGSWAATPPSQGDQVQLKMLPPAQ

For test [5], the target named is T6, acyl-CoA binding domain containing 6 (human, UniProt Q9BR61 1-282).
T6 construct: also called ACBD6
T6 sequence: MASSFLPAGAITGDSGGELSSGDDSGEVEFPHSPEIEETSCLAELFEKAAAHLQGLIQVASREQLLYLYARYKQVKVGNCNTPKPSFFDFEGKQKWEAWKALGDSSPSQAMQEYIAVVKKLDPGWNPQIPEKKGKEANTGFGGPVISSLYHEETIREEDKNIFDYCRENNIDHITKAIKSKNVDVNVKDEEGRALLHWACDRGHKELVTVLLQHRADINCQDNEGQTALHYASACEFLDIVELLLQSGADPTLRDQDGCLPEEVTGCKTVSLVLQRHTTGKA

Another test addresses T7, phosducin like (human, UniProt Q13371 2-301).
T7 construct: also called PDCL
T7 sequence: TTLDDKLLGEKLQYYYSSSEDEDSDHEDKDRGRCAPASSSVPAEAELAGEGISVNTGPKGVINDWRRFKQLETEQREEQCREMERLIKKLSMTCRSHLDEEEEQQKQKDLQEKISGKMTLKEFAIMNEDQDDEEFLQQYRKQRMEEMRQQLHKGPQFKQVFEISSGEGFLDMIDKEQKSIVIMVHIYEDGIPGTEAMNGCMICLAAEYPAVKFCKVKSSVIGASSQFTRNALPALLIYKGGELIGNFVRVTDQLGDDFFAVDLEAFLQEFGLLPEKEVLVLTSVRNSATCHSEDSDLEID

In the next test the target is T8, cancer/testis antigen 1A (human, UniProt P78358 1-180).
T8 construct: also called CTAG1A
T8 sequence (P78358 whole entry): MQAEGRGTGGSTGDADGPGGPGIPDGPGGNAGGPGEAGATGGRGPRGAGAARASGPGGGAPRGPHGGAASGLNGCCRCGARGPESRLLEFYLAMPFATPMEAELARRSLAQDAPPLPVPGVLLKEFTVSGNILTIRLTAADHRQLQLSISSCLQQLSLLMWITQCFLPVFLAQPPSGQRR

The target of the next test is T9, G antigen 2A (human, UniProt Q6NT46 1-116).
T9 construct: also called GAGE2A
T9 sequence: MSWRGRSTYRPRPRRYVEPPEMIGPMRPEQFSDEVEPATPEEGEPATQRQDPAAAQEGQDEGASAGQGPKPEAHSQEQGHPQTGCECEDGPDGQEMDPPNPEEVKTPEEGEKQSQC

Test [6] addresses T10, proliferating cell nuclear antigen, transcript variant 1 (human, UniProt P12004 1-261).
T10 construct: also called PCNA

The target of test [7] is T11, aarF domain containing kinase 5 (human, UniProt Q3MIX3 1-580).
T11 construct: also called ADCK5
T11 sequence (Q3MIX3 other isoform, or with tags, fused parts or gaps limits assumed): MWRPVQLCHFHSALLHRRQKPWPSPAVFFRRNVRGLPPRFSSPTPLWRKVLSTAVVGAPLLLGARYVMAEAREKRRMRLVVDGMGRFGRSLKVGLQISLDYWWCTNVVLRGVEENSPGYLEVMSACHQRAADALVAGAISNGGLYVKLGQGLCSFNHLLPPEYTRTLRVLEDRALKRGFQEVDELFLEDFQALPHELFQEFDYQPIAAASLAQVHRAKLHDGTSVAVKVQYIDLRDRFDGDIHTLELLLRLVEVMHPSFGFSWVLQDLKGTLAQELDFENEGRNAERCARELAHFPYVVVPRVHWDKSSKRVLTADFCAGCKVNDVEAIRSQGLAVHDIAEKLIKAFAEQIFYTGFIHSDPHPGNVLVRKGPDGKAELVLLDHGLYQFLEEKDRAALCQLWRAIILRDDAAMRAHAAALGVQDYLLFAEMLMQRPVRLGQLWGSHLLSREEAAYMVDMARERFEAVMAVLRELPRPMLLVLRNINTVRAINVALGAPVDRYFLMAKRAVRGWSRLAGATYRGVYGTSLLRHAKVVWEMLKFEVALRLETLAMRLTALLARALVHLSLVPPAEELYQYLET

Test [8] deals with T12, glyoxylate and hydroxypyruvate reductase (human, UniProt Q9UBQ7 1-328).
T12 construct: also called GRHPR
T12 sequence: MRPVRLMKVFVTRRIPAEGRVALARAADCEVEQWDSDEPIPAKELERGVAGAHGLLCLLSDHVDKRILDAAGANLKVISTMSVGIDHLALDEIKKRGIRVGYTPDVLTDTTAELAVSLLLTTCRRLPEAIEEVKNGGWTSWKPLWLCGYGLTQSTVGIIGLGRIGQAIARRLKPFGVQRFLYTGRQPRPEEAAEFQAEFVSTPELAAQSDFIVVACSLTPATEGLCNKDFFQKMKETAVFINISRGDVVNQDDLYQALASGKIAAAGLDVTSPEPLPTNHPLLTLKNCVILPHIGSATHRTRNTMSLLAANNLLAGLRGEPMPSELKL

The target of test [9] is BAF chromatin remodeling complex subunit BCL7C, transcript variant 2 (human, UniProt Q8WUZ0 1-217).

T1 sequence (Q96PV4 other isoform, or with tags, fused parts or gaps mutant limits assumed): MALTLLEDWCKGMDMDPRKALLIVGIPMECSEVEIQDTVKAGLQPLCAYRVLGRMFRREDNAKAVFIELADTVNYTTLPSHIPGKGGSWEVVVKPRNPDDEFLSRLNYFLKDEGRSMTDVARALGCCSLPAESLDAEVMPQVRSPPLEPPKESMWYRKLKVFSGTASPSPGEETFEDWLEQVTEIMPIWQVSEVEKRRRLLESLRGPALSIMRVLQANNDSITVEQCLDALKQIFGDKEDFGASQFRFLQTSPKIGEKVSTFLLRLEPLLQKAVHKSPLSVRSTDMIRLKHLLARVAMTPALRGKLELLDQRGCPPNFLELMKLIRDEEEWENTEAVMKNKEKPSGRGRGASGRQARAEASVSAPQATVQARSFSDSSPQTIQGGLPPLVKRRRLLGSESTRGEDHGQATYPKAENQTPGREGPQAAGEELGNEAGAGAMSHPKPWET
T10 sequence (P12004 whole entry, change not shown): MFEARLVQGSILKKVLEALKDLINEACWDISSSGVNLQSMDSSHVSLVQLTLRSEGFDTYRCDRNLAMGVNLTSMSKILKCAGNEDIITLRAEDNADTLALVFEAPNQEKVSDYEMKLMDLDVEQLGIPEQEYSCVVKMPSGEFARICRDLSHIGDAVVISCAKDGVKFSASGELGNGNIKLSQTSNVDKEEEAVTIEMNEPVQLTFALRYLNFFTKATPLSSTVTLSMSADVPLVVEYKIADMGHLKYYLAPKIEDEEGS

B1: TBRE1039 (antibody, V domains shown)
VH: PVQLVQSGAEVKKPGSSVKVSCKASGGTFSSYAISWVRQAPGQGLEWMGGIIPIFGTANYAQKFQGRVTITADESTSTAYMELSSLRSEDTAVYYCARENWNSAGTTEWFDPWGQGTLVTVSS
VL: PYVLTQPPSVSVAPGKTARITCGGNNIGSKSVHWYQQKPGQAPVLVIYYDSDRPSGIPERFSGSNSGNTATLTISRVEAGDEADYYCQVWDSSSDHYVVFGGGTKLTVLG
notes: VH/VL only
Consider B1, for which the binding result in [1], in test [2] and in test [3] was “binds” in each case.

B2: TTES1008 (antibody, V domains shown)
VH: QVQLVESGGGVVQPGRSLRLSCAASGFIFSSYGMHWVRQAPGKGLEWVAVISYDGSNKYYADSVKGRFTISRDKSKNTLHLQMNSLRAEDTAVYYCAKDSGSNDDMDVWGKGTTVTVSS
VL: QSVLTQPPSVSAAPGQKVTISCSGSSSNIGNNYVSWYQQLPGTAPKLLIYDNNKRPSGIPDRFSGSKSGTSATLGITGLQTGDEADYYCGTWDSSLSAGVFGTGTKVTVLG
Turning to B2, the binding result (with Dexd-box helicase 52; in [4]) was “binds” throughout.

B3: TTES1006 (antibody, V domains shown)
VH: EVQLVESGGGLVQPGGSLRLSCAASGFTFSKFWMHWVRQAPGKGLVWLSRINTDGTVTTYADSVKGRFTISRDNAKSTLYLQMNSLRVEDTAVYYCAGGGSQVDFWGQGTLVTVSS
VL: PYELTQPPSVSVSPGQTASIACSGDNLGNKYAWWYRQKPGQSPVLVMYKDNKRPSGIPERFSGSNSGNTATLTISGTQAMDEADYYCQTWDSSTVIFGGGTKLTVQ
With B3, the binding result in test [5] is “binds”.

B4: TTES1007 (antibody, V domains shown)
VH: QITLKESGPTLVKPTQTLTLTCTFSGFSLTTTGVGVGWIRQPPGKALEWLALIYWDDDKRYSPSLKSRLIITKDTSKNQVVLTMTNMDPVDTATYYCAHRFGRGVSYYYYGMDVWGQGTTVTVSS
VL: not shown
Regarding B4, the binding result with phosducin like was “binds”.

B5: TTHY1004 (antibody, V domains shown)
VH: PVQLQESGPGLVKPSQTLSLTCTVSGGSISSGTYYWSWIRQPAGKGLEWIGRIYASGSTNYNPSLKSRVTISVDTSKNQFSLKLTSVTAADTAVYYCARYSGSYPLGFDYWGQGTLVTVSS
VL: DIQMTQSPSSLSASVGDRVTITCRASQSISTYLNWYQQKPGMAPKLLIYAASTLQSGVPSRFSGSGSATDYTLTISSLQPEDFATYYCQQSYNTPLTFGGGTKVDIKR
B5: the binding result with cancer/testis antigen 1A is listed as “binds”.

B6: TTES1012 (antibody, V domains shown)
VH: EVQLVESGGGLVQPGGSLRLSCAASGFTFSSYWMTWVRQAPGKGLEWVANIKQDGSEKYYVDSVKGRFTISRDNSKNSLYLQMNSLRAEDTAVYYCARAGYDLFGWFDPWGQGTLVTVSS
VL: SYELTQPPSVSVSPGQTARITCSGDALPKQYAYWYQQKPGQAPVLVIYKDSERPSGIPERFSGSSSGTTVTLTISGVQAEDEADYYCQSADSSGTYVFGTGTKVTVLG
As to B6, the binding result in the test with G antigen 2A is recorded as “binds”.

B7: TTHY1002 (antibody, V domains shown)
VH: EVQVVESGGGLGQPGGSLRLSCAASGFTFSSYSMNWVRQAPGKGLEWVSYISSSSSTKYYADSVKGRFTISRDNAKKSLYLQMNSLRDEDTAVYYCASPVRPWGQGTLVTVSS
VL: EIVMTQSPATLSVSPGERATLSCRASQSVSSNLAWYQQKPGQAPRLLIYGASTRATGIPARFSGSGSGTEFTLTISSLQSEDFAIYYCQQYNSWPAFGGGTKVEIK
Consider B7, for which the binding result in test [6] is given as “binds”.

B8: TTES1009 (antibody, V domains shown)
VH: EVQLVESGGGLVQPGGSLRLSCAASGFTFSSYEMNWVRQAPGKGLEWVSYISSSGSTIYYADSVKGRFTISRDNAKNSLYLQMNSLRAEDTAVYYCARRGFYYYYGMDVWGQGTTVTVSS
VL: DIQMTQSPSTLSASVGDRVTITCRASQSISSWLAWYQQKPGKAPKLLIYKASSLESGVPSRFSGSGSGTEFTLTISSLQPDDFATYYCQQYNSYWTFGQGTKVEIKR
Turning to B8, the binding result in [7] is listed as “binds”.

B9: TTES1004 (antibody, V domains shown)
VH: EVQLVESGGGLVQPGGSLRLSCVASGFTFSSYSMNWVRQAPGKGLKWVSYISSSRSTIYNADSVKGRFTISRDNAKKSLYLQMNSLRAEDTAVYYCARVSVAAPTCLDYWGQGTLVTVSS
VL: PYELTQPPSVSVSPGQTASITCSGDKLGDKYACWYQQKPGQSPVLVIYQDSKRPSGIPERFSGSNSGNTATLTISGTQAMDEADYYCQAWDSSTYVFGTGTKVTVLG
In the case of B9, in test [8], the binding result is listed as “binds”.

B10: TTHY1003 (antibody, V domains shown)
VH: QVQLVQSGAEMKKPGTSVKVSCRTSGYIFTGSFMHWVRQAPAQGLEWMGWINPKTGATYYTEKFKGRVTLTRDTSINTAYMEMTSLRSDDTAVYYCARGFCDLPACYPVPQYNWFDPWGQGTLVTVSS
VL: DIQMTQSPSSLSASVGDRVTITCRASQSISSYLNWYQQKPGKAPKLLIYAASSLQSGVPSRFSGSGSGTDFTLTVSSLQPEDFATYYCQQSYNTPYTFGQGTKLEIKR
For the molecule B10, the binding result in test [9] is “binds”.

The values above are taken from patent US20220204643A1 (published 2022).
